# Laboratory results: the Immune Epitope Database (IEDB)
# Experiments:
# HLA-B*15:01 [1] = test: IEDB peptide-MHC binding, purified MHC/competitive/fluorescence; filed as Kd, often an IC50 or EC50 that approximates it; ≥ and ≤ were set here for values at or beyond the usual limits of such assays
# HLA-B*35:01 = test: as above
# HLA-A*02:16 [2] = test: IEDB peptide-MHC binding, purified MHC/direct/fluorescence; filed as Kd, often an IC50 or EC50 that approximates it; ≥ and ≤ were set here for values at or beyond the usual limits of such assays
# HLA-A*02:12 = test: as above
# HLA-A*02:03 = test: as above
# HLA-A*24:03 = test: as above
# HLA-A*03:01 [3] = test: as above
# HLA-A*02:19 = test: as above
# HLA-B*83:01 = test: IEDB peptide-MHC binding, purified MHC/competitive/fluorescence; filed as Kd, often an IC50 or EC50 that approximates it; ≥ and ≤ were set here for values at or beyond the usual limits of such assays; conditions: source organism: Zaire ebolavirus
# HLA-B*46:01 = test: as above
# HLA-B*45:06 = test: as above; conditions: source organism: Zaire ebolavirus
# HLA-B*57:01 [4] = test: as above
# HLA-A*31:01 = test: as above
# HLA-B*51:01 = test: as above
# HLA-B*39:01 = test: as above
# HLA-A*02:01 = test: as above
# HLA-B*18:01 = test: as above
# HLA-B*27:03 = test: as above
# HLA-B*15:42 = test: as above; conditions: source organism: Zaire ebolavirus
# HLA-B*15:17 = test: as above
# HLA-A*03:01 [5] = test: as above; conditions: source organism: Escherichia coli 536
# HLA-B*08:01 = test: as above
# HLA-B*07:02 = test: IEDB peptide-MHC binding, purified MHC/direct/fluorescence; filed as Kd, often an IC50 or EC50 that approximates it; ≥ and ≤ were set here for values at or beyond the usual limits of such assays; conditions: source organism: Orthohantavirus puumalaense
# HLA-A*29:02 = test: as above; conditions: source organism: Limestone Canyon virus
# HLA-A*68:02 = test: as above; conditions: source organism: Limestone Canyon virus
# HLA-A*02:11 = test: as above; conditions: source organism: Limestone Canyon virus
# HLA-A*26:01 = test: IEDB peptide-MHC binding, purified MHC/competitive/fluorescence; filed as Kd, often an IC50 or EC50 that approximates it; ≥ and ≤ were set here for values at or beyond the usual limits of such assays
# HLA-A*69:01 = test: as above
# HLA-A*11:01 [6] = test: IEDB peptide-MHC binding, purified MHC/direct/fluorescence; filed as Kd, often an IC50 or EC50 that approximates it; ≥ and ≤ were set here for values at or beyond the usual limits of such assays
# HLA-B*58:01 [7] = test: IEDB peptide-MHC binding, purified MHC/competitive/radioactivity; filed as Kd, often an IC50 or EC50 that approximates it; ≥ and ≤ were set here for values at or beyond the usual limits of such assays; conditions: source organism: Dengue virus 2 Jamaica/1409/1983
# HLA-B*57:01 [8] = test: as above; conditions: source organism: Dengue virus 2 Jamaica/1409/1983
# HLA-A*01:01 = test: as above; conditions: source organism: Dengue virus 2 Jamaica/1409/1983
# HLA-B*53:01 = test: as above; conditions: source organism: Dengue virus 2 Jamaica/1409/1983
# HLA-C*07:02 = test: IEDB peptide-MHC binding, purified MHC/direct/fluorescence; filed as Kd, often an IC50 or EC50 that approximates it; ≥ and ≤ were set here for values at or beyond the usual limits of such assays; conditions: source organism: Human herpesvirus 4 strain B95-8
# HLA-C*03:03 = test: as above
# HLA-B*58:01 [9] = test: as above; conditions: source organism: Reston ebolavirus - Reston
# HLA-B*15:01 [10] = test: as above; conditions: source organism: Reston ebolavirus - Reston
# HLA-A*11:01 [11] = test: IEDB peptide-MHC binding, purified MHC/competitive/fluorescence; filed as Kd, often an IC50 or EC50 that approximates it; ≥ and ≤ were set here for values at or beyond the usual limits of such assays
# HLA-A*02:16 [12] = test: as above; conditions: source organism: Mycobacterium tuberculosis C
# [13] = source organism: Bacillus anthracis str. A0488
# [14] = source organism: Zaire ebolavirus
# [15] = source organism: Escherichia coli 536
# [16] = source organism: Limestone Canyon virus
# [17] = source organism: Orthohantavirus puumalaense
# [18] = source organism: Influenza A virus (A/Belfast/53582/2004(H3N?))
# [19] = source organism: Escherichia coli
# [20] = source organism: Mycobacterium tuberculosis C
# [21] = source organism: Reston ebolavirus
# [22] = source organism: Vibrio vulnificus
# [23] = source organism: Mycobacterium tuberculosis variant bovis BCG str. Pasteur 1173P2
sequence,measurement,setting,value
IVVDNTSAF,Kd,HLA-B*15:01 [1]; [13],70.4 nM
same,Kd,HLA-B*35:01; [13],0.4 nM
FTFDLTALK,Kd,HLA-A*02:16 [2]; [14],≥ 20 µM
same,Kd,HLA-A*02:12; [14],≥ 20 µM
same,Kd,HLA-A*02:03; [14],≥ 20 µM
same,Kd,HLA-A*24:03; [14],≥ 20 µM
same,Kd,HLA-A*03:01 [3]; source organism: Ebola virus - Gabon (1994-1997),229 nM
same,Kd,HLA-A*02:19; [14],≥ 20 µM
same,Kd,HLA-B*83:01,≥ 5 µM
same,Kd,HLA-B*46:01; [14],≥ 20 µM
same,Kd,HLA-B*45:06,≥ 5 µM
same,Kd,HLA-B*57:01 [4]; [14],≥ 20 µM
same,Kd,HLA-A*31:01; [14],≥ 20000 nM
same,Kd,HLA-B*15:01 [1]; [14],≥ 20000 nM
same,Kd,HLA-B*51:01; [14],≥ 20 µM
same,Kd,HLA-B*39:01; [14],≥ 20 µM
same,Kd,HLA-A*02:01; [14],≥ 20 µM
same,Kd,HLA-B*18:01; [14],≥ 20 µM
same,Kd,HLA-B*27:03; [14],≥ 20 µM
same,Kd,HLA-B*15:42,≥ 5 µM
same,Kd,HLA-B*15:17; [14],≥ 20 µM
KIPATVIAR,Kd,HLA-A*03:01 [5],31 nM
same,Kd,HLA-A*31:01; [15],34.4 nM
LIAVPHTKL,Kd,HLA-B*08:01; [15],≥ 20000 nM
SPVMGVIGF,Kd,HLA-A*02:16 [2]; [16],≥ 20 µM
same,Kd,HLA-B*07:02,60.7 nM
same,Kd,HLA-A*02:12; [16],≥ 20 µM
same,Kd,HLA-A*02:03; [16],≥ 20 µM
same,Kd,HLA-A*24:03; [16],≥ 20 µM
same,Kd,HLA-A*03:01 [3]; [16],≥ 20000 nM
same,Kd,HLA-A*29:02,≥ 20 µM
same,Kd,HLA-A*68:02,≥ 20 µM
same,Kd,HLA-A*02:19; [16],≥ 20 µM
same,Kd,HLA-A*02:11,≥ 20 µM
same,Kd,HLA-B*46:01; [17],≥ 20 µM
same,Kd,HLA-B*57:01 [4]; [17],≥ 20 µM
same,Kd,HLA-B*15:01 [1]; [17],≥ 20000 nM
same,Kd,HLA-B*51:01; [17],≥ 20 µM
same,Kd,HLA-A*26:01; [17],≥ 20 µM
same,Kd,HLA-B*39:01; [17],≥ 20 µM
same,Kd,HLA-A*02:01; [17],≥ 20 µM
same,Kd,HLA-B*18:01; [17],≥ 20 µM
same,Kd,HLA-B*27:03; [17],≥ 20 µM
same,Kd,HLA-B*15:17; [17],≥ 20 µM
same,Kd,HLA-B*35:01; [17],0.5 nM
same,Kd,HLA-A*69:01; [17],≥ 20 µM
WILDRLFFK,Kd,HLA-A*03:01 [3]; [18],52.7 nM
same,Kd,HLA-A*11:01 [6]; [18],2.1 nM
same,Kd,HLA-A*31:01; source organism: Influenza A virus (A/Memphis/1/1978(H1N1)),244 nM
KTALTGAMR,Kd,HLA-A*11:01 [6]; source organism: Yellow fever virus,15.1 nM
same,Kd,HLA-A*31:01; source organism: Yellow fever virus 1899/81,16 nM
HLAGYSGVL,Kd,HLA-B*15:01 [1]; [19],354 nM
same,Kd,HLA-B*08:01; [19],1900 nM
same,Kd,HLA-B*39:01; [19],0.0025 µM
VVYKTGAIR,Kd,HLA-A*03:01 [3]; source organism: Mycobacterium leprae,751 nM
same,Kd,HLA-A*31:01; [20],59.4 nM
LTSSQQKADW,Kd,HLA-B*58:01 [7],59.2 nM
same,Kd,HLA-B*57:01 [8],100 nM
same,Kd,HLA-A*01:01,11 µM
same,Kd,HLA-B*53:01,≥ 21.8 µM
FYNIPPMPL,Kd,HLA-C*07:02,43 nM
same,Kd,HLA-C*03:03; source organism: Human herpesvirus 4 strain B95-8,51 nM
QAFEAGIDF,Kd,HLA-B*58:01 [9],1030 nM
same,Kd,HLA-B*15:01 [10],76.6 nM
same,Kd,HLA-B*57:01 [4]; [21],≥ 20 µM
same,Kd,HLA-B*51:01; [21],≥ 20 µM
same,Kd,HLA-A*26:01; [21],≥ 20 µM
same,Kd,HLA-B*39:01; [21],≥ 20 µM
same,Kd,HLA-A*02:01; [21],≥ 20 µM
same,Kd,HLA-B*18:01; [21],≥ 20 µM
same,Kd,HLA-B*27:03; [21],≥ 20 µM
same,Kd,HLA-B*15:17; [21],≥ 20 µM
same,Kd,HLA-B*35:01; [21],0.2 nM
same,Kd,HLA-A*69:01; [21],≥ 20 µM
SSFSFGGFTFK,Kd,HLA-A*11:01 [11]; source organism: Influenza A virus H3N2,0.5 nM
TVFSLLLFY,Kd,HLA-A*11:01 [11]; source organism: Yersinia pestis Nepal516,500 nM
TMDPSVRVL,Kd,HLA-C*03:03; [20],30 nM
same,Kd,HLA-A*02:16 [12],217 nM
same,Kd,HLA-A*02:01; [20],0.0414 µM
SSGVFHSYK,Kd,HLA-A*03:01 [3]; [22],9.7 nM
same,Kd,HLA-A*11:01 [6]; [22],≤ 1 nM
same,Kd,HLA-A*31:01; source organism: Vibrio vulnificus YJ016,3.5 nM
SAFGGGNAF,Kd,HLA-C*03:03; [23],≤ 1 nM
same,Kd,HLA-B*46:01; [23],0.0368 µM
